# The DeepSol protein solubility set
# Assay: soluble on expression in E. coli; label from the status in PepcDB or PDB records
row,Sequence,soluble on expression in E. coli
1,MFLVDSHCHLDGLDYESLHKDVDDVLAKAAARDVKFCLAVATTLPGYLHMRDLVGERDNVVFSCGVHPLNQNDPYDVEDLRRLAAEEGVVALGETGLDYYYTPETKVRQQESFIHHIQIGRELNKPVIVHTRDARADTLAILREEKVTDCGGVLHCFTEDRETAGKLLDLGFYISFSGIVTFRNAEQLRDAARYVPLDRLLVETDSPYLAPVPHRGKENQPAMVRDVAEYMAVLKGVAVEELAQVTTDNFARLFHIDASRLQSIR,soluble
2,MFNKILVVCVGNVCRSPTAERLLKRFHPSLTVASAGLGALVGKGADPAAASVASAHDLSLENHCARQISARLCREYDLILTMEKRHIAALCDIAPEMRGKVMLFGHWDSEREIPDPYRKSRDAFEAVYTLLERSARQWAQALNAEQGKP,not soluble
3,MFPRKELLKDGSLLLIREASIWDARRIVEYLKEVTSETDFLITRPDEVYDVSTERNYIRMYRSNPGKLMIVGEINREIVSLLTFTGFGRKRTKHVGEIGISVKKRYWNIGIGTRMITSAIEWARRNGFIRIQLEVLKSNERAISLYRKLGFELEGIKRKAVRRDDGSFEDVLVMALLLD,soluble
4,MFPSVDPEKCEDKGECVSTCPYEVFELGIRTAEEISELSFIGRIEARAHGNRMARTSHIDMCHVCGDCVIVCSEKAIRLLPR,not soluble
5,MFRPILILTILSCVLAYHQYRELKCSTPTNSIRGGPDRAECHLVLKAEELETGRPVPTGLGCWQEDHDGEEREYCDIVCPKSHTVFISYIDQGHRACFNFITYQVEKRNDEHVLWRSGKCLNSTVNYRIGCKFDDPFETQFKSDNEIFAHLRARARRV,not soluble
6,MFSDYHVHSSFSFDSEESPRAIVEKAIALGMKQICFTDHQDFNWPIKGESPYIDFPKYFEVLNSLRNEYSSKINILKGVELGLTSDNFSLCHKFLDSYDFDFVIGSCHIVDQMDPYYAEFWKGKNDRDCFELYFKTLLDSLKFFIGRNTCTTPRTVNTLGHLDYIVRYSPNKDNNYSVADYIDVIDEILKMIIENDIKLEINTSNFSKGFDFPNPHTDIIRRYKELGGLYVTVGSDAHKAQFIGSGFDLVEKIVEKYKLKVFTI,not soluble
7,MFSIQIPALHGKYLREVLESIREQTFQDYEVVVVNSGGGVISDIVHEYGFKEVRKDVKLLEARYLANKESRGDYAFLLDETRPLRKDALEILSKNLHDMVIIGERELGDSFWSRAAQLDKENIMECNSPEAVRGFALPRLFKRELLTASLEKLRENLREKFSQVVFPDHELIYYEASGFSNDIFVIKDELVYHYGDFTLKEIVRKYYRYGKSLKVLKDTPYSFMTSVSRKRREICVGGIKGRLTLYILYLARGIPFLFGKFSLLEHHHHHH,soluble
8,MFSPDTNSEFYDDFYTKYNTNMAPTTSTFNAQPRLSLDSGLGLTNDSFYSTDLNETHLMDISAGNASTSFQSQPPPQLESSPPTKWARIRTPPNRKKKISHEGPNQEALPPGFNLFSPPSRKKIKTAFSSPPPKSMKTPDSLRKSIRISSPSPFKVTFSKTPLKLSNNENVTGIHIGRSGTYYNKQVTGSASKRCLLPSKPDGFTFLGSPGNSDVLDFPLQTTFEGFGDLDTPAKINAALEVNNDDSMDYYQYAGMIETSSSLATYTNSTGPLVENHARNLKSVPISRTASRNLMKISRKSVEEPVPEPQAVHVEPVIEKPTKISAKKEKEQKKSAAKEAALKEAKEKEMRIWKLAPFETPKKEVPLYSGRWLVISTGRTLAQQELFSDAKSFFKANPPPAPRAPQAPELASGPRRIPTIQRVTLFKHRYRSPRD,not soluble
9,MFSPEQIAGKDVRLLRIKKEGSLDLALEGGVDSPVGKVVVSAVYEGGAAERHGGVVKGDEIMAINGKIVTDYTLAEAEAALQKAWNQGGDWIDLVVAVCPPKEYDDELTFF,soluble
10,MFSVNNTHSSVSCSPSINSNSTSNEHYLRILTEWEKNSSPGEERGIAFNRLSQCFQNQEAVLNLSDLNLTSLPELPKHISALIVENNKLTSLPKLPAFLKELNADNNRLSVIPELPESLTTLSVRSNQLENLPVLPNHLTSLFVENNRLYNLPALPEKLKFLHVYYNRLTTLPDLPDKLEILCAQRNNLVTFPQFSDRNNIRQKEYYFHFNQITTLPESFSQLDSSYRINISGNPLSTRVLQSLQRLTSSPDYHGPQIYFSMSDGQQNTLHRPLADAVTAWFPENKQSDVSQIWHAFEHEEHANTFSAFLDRLSDTVSARNTSGFREQVAAWLEKLSASAELRQQSFAVAADATESCEDRVALTWNNLRKTLLVHQASEGLFDNDTGALLSLGREMFRLEILEDIARDKVRTLHFVDEIEVYLAFQTMLAEKLQLSTAVKEMRFYGVSGVTANDLRTAEAMVRSREENEFTDWFSLWGPWHAVLKRTEADRWAQAEEQKYEMLENEYSQRVADRLKASGLSGDADAEREAGAQVMRETEQQIYRQLTDEVLALRLSENGSRLHHS,not soluble
11,MFTKSCAKATDQNRQELFMDSLLGDFQKMKEKALNQQQERRSKKRELHCKSSEKTKKPNQYAALTHSQVQEVKAKVRTVNDKFHLNAEEKKLWELILLGNQLAQNISSCDLPTDNEDDASLVKLTQIFADETLERTDLTWLNKILKIALYSRGSGFGNCQEKAFFVFALLLHQAQKPESLIHSLRLATFNNHFILIVNEQFLMDPWLNLAFPLSKGNQQLEIGYVFERFGRLVNYFSINQEGQCFTHTVREGGTIERDPSSEKDMANCIHSLLDHRDYFDLSIVSEREIHTNTKRRKYENQEQEVPQPRQETSNQPTETVYTDSSHNTWDNEGAADDFLEHFEQTHPVYNPGFFSFGQDDVGLKPDLPKNLFKF,not soluble
12,MFTSKPAFKIKNKASKSYRNTAVSKKLKEKRLAEHVRPSCFNIIRPLKKDIQIPVPSSRFLNKIQIHRIASGSQNTQFRQFNKTSIKSSKKYLNSFMAFRAYYSQFGSGVKQNVLSSLLAEEWHADKMQHGIWDYFAQQYNFINPGFGFVEWLTNNYAEVRGDGYWEDVFVHLAL,not soluble
13,MFTTYKNINELENAYDEERKQLNDAFNQIDELRHQTRKKCEQMYDHFLYLKHKMNYSEDAMIRMTRIIESFDRETNQRIRHHEMKLEDYKDELRREYLKQSDRIEGDELEHHHHHH,not soluble
14,MFVPLAMLAGMFSYYETFHETEALQDDLLRQAALYVAPDSKPETLPEGDGDTRIFVQMPQQEDPVVSLPAHLADGLHTLQADGDDDYYRVYIRTTEQGRIAVMQENEYREDLAADAARQSVLPLLAALPLMILLTVWITHKAMRPVRKLSQSLEQRRINDLSALSVDNIPSEIRGFVTAINLLLKRADEDIRHRQRFVADAAHELRTPMTALSLQAERLNNMSLPPDAARQPAVLQQSIRRNKHLLEQLLALARSQSDETPLTKTTFGLQSRFRQVLQELMPLALEKRQDIGVAVGGDVEVSADETEIYTLIKTFADNAVRYTPPEGRIDLGFTDEGKYLAVWVEDNGNGIPESERARVLDPFYRILGTEQQGTGLGLSIADTLAKKYGGHLELTDSRRFGHGLLIRALLDKETLK,not soluble
15,MFWVFLVRHGEAYPEEVDPQRPLTEKGRKDTEKIAKALKNFGVKPELIYTSPKLRAKQTAKIIANILGVEKIRETELLLPNTDPKETSKLIDGKNVVLCGHLPNLARLFSLLYLSEDNERRVNLSTSGALVLKWKDFWVLELLLEPSVL,not soluble
16,MFYILNNVLKNIKTLDNVKSKFFLKDSFLKNKLKANNLDDNLSSHIFFNEIFVSLRDDEKKEEHKKVLLFNKVRNDKKHRKRAFQKRGYWKKMHYFIRKNNMMSYAFKVQNIDYEKIKKLKRGEVYSN,not soluble
17,MGAAMGPALAVDAAQEAPTADNSPAVEAPQTPEEGEQSAQTSQDNPRYESQIVRAGHSAEAEQVGDVSEDTIFEYSEFDIPEGWFVSVDEDSGKVTVSTPPDAQDGDNYTVKVKAVDLDGNVTWSEVTFTVGDPETDNPEIEPLDADAPEVELPAAE,not soluble
18,MGAGREVSVSLDGVRDKNLMQLKILNTVLFPVRYNDKYYADAIAAGEFTKLAYYNDICVGAIACRLEKKESGAMRVYIMTLGVLAPYRGIGIGSNLLNHVLDMCSKQNMCEIYLHVQTNNEDAIKFYKKFGFEITDTIQNYYINIEPRDCYVVSKSFAQSEANK,soluble
19,MGALLKGRIYTMSVKTLKRTITAVAILAASVMSSSAWSNDLKEIRERGVLRHIGVPYANFVSYIEQGEMHTLTGLDVDIVKGFASSLGVRYEYVPAQWSDMVGKLTGQDVQYRHNRAVVGGSVPIEGDLIANGVTILDWREEVLDFSQDYFPSAVWLVSRTDSSLSPIKPSGSIDEDVKTVKELIDGREVLALEHSCLDPNLYDLYDTGAKVILPDGKRLLNEMVPAIMKNDAESTLLDVADTLIALEKWPG,not soluble
20,MGALVIRGIRNFNLENRAEREISKMKPSVAPRHPSTNSLLREQISLYPEVKGEIARKDEKLLSFLKDVYVDSKDPVSSLQVKAAETCQEPKEFRLPKDHHFDMINIKSIPKGKISIVEALTLLNNHKLFPETWTAEKIMQEYQLEQKDVNSLLKYFVTFEVEIFPPEDKKAIRSK,soluble
21,MGAPALPQIWQLYLKNYRIATFKNWPFLEDCACTPERMAEAGFIHCPTENEPDLAQCFFCFKELEGWEPDDNPIEEHRKHSPGCAFLTVKKQMEELTVSEFLKLDRQRAKNKIAKETNNKQKEFEETAKTTRQSIEQLAA,soluble
22,MGASKDAMDEEGNAAADLGLVARIRESFDSLTATEREAAQFILGHLTDVLVCNSVELSQLSGISQPTLSRLYRKLGYANAGEFRRDVRRVHRPGSPELSRHTQCDDLVADHLRRDEESLKRTFEGIDRAQLSSACQAMATAPHVAVVGYHSSYPVALHMREQLMRLRGNVDILPNPGQSIAEDLVDYAAGDVIVIIGVGRRLPFFSRLIDVMLERGLTVVVIGDISARNAVIGRNVAFFKVVLSSHVLTSFTAAFALIALMVDEVGKCLVDTEDEVHARIEGINDCFDALNELED,not soluble
23,MGASSSSSVSEKSIHQFTVKDSSGKEVDLSVYQGKVLLVVNVASKCGFTESNYTQLTELYRKYKDQGFVVLAFPCNQFLSQEPGTSEEAHQFACTRFKAEYPVFQKVRVNGQNAAPVYKFLKSKKPSFLGSRIKWNFTKFLVGKDGQVIDRYGTTVSPLSIQKDIEKALAQEL,soluble
24,MGCCQSKKARNNQRNNQRSDQMNRQHTQPSPNASTEQMAYPRQQPQGIPQGPPPAYAPPAAPKAPEKVVEPKNRRVTIAEPPERVAEPSPTPEDPELFTCIDQTEKEVEKEVEKRKSAPRAPVPAPTPAPQAAPQATPAAPAQAYPQQQQAAPVVYGSQPMVMGAAPVAPVVMAPPPVIMSPYPYYGGGVMFDPYYNGFYGGYGYGGFDFGYGGYGGYGCGFY,not soluble
25,MGDPKAFLNIPRQEAGYRPVSERITDYSQVEQTLNTNSRKLQASRCMDCGVPFCHWACPIGNKQPEWQDALFKGKWKEAYEVLSSTCDFPEFTGRICPALCEKSCVLKLSCDQPVTIRENEAAIVEAAFREGYIQVQHPQRNGKKVAVVGAGPAGLVVANQLNLKGYTVTLFDKDEAAGGLLRFGIPNFKLDKNVIDRRMKILAAEGIQFEMGVEIDVNHLPEGFDAYCICTGTPTARDLSIPGRELKGIHFALEMLAQQNRILEGQTFPKDKLVNAKGKKVLVIGGGDTGSDCIGTSVRQGATSVTQIEIMPKPPVGHNPSTPWPQWPVVFKTTSSHEEGCTRRWCLTSNQFLGKNGKVTGVEVEEVEWTPATDGGRPTMNLTGKKEVIEADMVLLAMGFLKPEQPKFAENVFLAGDAATGASLVVRAMAGGRKAAADIDHYLVKLEHHHHHH,soluble
